According to patent US20260001937A1, “NOVEL RECOMBINANT FIBRINOGEN VARIANTS FOR FIBRIN SEALANTS FOR SURGICAL WOUND CARE” (Julius-Maximilians-Universität Würzburg, priority 2022, published 2026):

Columns and labels:
ExpiCHO-S cells = assay: α-chain degradation of recombinant fibrinogen during CHO cell expression (SDS-PAGE, in-gel digest MS); format: cell-based, Chinese hamster; settings: no protease inhibitor added
Procedure: Fibrinogen variants were expressed according to the user manual (Thermo Scientific, Waltham, USA). Briefly, ExpiCHO-S™ cells (Thermo Scientific, Waltham, USA) were cultured to a final density of 10×10^6 cells/mL. Plasmids encoding for the different fibrinogen variants (0.8 μg/mL of culture) as well as ExpiFectamine™ CHO (Thermo Scientific, Waltham, USA) were diluted in 5 mL of cold OptiPro™ medium (Thermo Scientific, Waltham, USA) and incubated for 5 min at RT. The ExpiFectamine™ CHO/DNA complex was transferred to the shaker flask and incubated at 37° C. and 8% CO2 and 130 rpm. After 24 h of incubation, ExpiFectamine™ CHO Enhancer and ExpiFectamine™ CHO Feed (Thermo Scientific, Waltham, USA) were added to the culture flask. The culture flasks were transferred to an incubator at 32° C. and 8% CO2 with shaking at 130 rpm. This step was repeated after 4 days of incubation. After another incubation step of up to 7 days at 32° C. and 8% CO2 and 130 rpm cells were harvested and centrifuged at 3000 rpm for 15 minutes. […]
Purified proteins and conjugates were analyzed using Tris-glycine SDS-PAGE either with or without the addition of β-mercaptoethanol as described before.58 Gels were stained with Coomassie Brilliant Blue G250 and documented using FluorChem FC2 imaging system (Protein Simple, Santa Clara, USA). […]

thrombin = thrombin (Homo sapiens, UniProt P00734); assay: Thrombin-catalyzed fibrin polymerization, turbidity at 350 nm; format: biochemical; settings: fibrinogen 0.1 mg/mL, thrombin 0.05 U/mL
Procedure: FIG. 26: Thrombin-catalyzed fibrin polymerization. Polymerization of fibrinogen (0.1 mg/mL) was initiated by the addition of thrombin (0.05 U/mL), factor XIIIa (Fibrogammin®, CSL Behring) (50 mU/ml) as well as CaCl2 (10 mM). The change in turbidity at 350 nm was followed with time (0-3600 sec). Representative polymerization curves of plasma Fibrinogen (square) and His-rFbgH433R435 (triangle).
Turbidity experiments were conducted on a Tecan Infinite M Plex plate reader at 37° C. A 96-well plate with a final volume of 100 μl per well was used and was experiments were performed in triplicate. The Thrombin-catalyzed fibrin polymerization of fibrinogen (0.1 mg/mL) was initiated by the addition of thrombin (0.05 U/mL), factor Xllla (Fibrogammin®, CSL Behring; 50 mU/ml) as well as CaCl2 (10 mM). The change in turbidity at 350 nm was followed over time (0-3600 sec).

FXIIIa = biological target: T1, FXIIIa (Homo sapiens, UniProt P00488); assay: FXIIIa-catalyzed cross-linking of fibrin (SDS-PAGE, reducing); format: biochemical
T1 construct: purchased CSL Behring Fibrogammin
T1 sequence (P00488 39-732 limits assumed): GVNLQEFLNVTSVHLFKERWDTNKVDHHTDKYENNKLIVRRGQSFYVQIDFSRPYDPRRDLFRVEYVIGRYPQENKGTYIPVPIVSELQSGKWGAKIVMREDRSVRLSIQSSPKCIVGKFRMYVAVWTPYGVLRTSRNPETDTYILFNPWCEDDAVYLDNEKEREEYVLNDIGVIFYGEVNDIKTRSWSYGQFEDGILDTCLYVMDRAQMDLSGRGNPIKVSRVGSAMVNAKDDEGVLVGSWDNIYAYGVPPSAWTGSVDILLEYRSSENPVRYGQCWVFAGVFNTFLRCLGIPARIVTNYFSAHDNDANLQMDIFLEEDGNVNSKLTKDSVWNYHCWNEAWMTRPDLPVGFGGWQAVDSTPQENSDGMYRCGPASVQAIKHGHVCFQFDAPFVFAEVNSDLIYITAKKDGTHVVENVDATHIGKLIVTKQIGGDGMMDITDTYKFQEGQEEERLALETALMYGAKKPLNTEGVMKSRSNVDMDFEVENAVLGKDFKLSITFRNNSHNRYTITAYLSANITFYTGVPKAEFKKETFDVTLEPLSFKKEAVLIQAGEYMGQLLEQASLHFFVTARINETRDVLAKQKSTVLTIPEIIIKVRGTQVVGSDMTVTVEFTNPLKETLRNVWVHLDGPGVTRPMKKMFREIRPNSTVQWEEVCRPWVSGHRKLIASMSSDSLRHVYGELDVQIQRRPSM
Procedure: FIG. 27: FXIIIa-catalyzed cross-linking of fibrinogen. Crosslinking of His-rFbgH433R435 by rFXIIIa was examined with SDS-PAGE, under reducing conditions. Fibrinogen (0.1 mg/mL) was mixed with FXIIIa (0.5 mU/mL) and thrombin (0.05 U/mL), and the reaction was incubated for the specified time at 37° C. The reduced fibrin chains (α, β, γ, cross-linked γ-γ dimer) are indicated on the right side of the gel.
To examine cross-linking of fibrin, fibrinogen (0.1 mg/mL) was incubated at 37° C. with FXIIIa ([…]) and human-thrombin (final concentration, 0.05 U/mL) in Tris-buffer and CaCl2 (10 mM). The reactions were stopped at various times by addition of an equal volume of sodium dodecyl sulfate (SDS) sample buffer with 2-mercaptoethanol and incubation (5 min) at 90° C. Samples were separated on SDS-polyacrylamide gel electrophoresis (SDS-PAGE) and stained with Coomassie brilliant blue.

His-rFbgH433R435: Aα, Bβ- and γ-chain fibrinogen; α-chain L433H, T435R (SEQ ID 79), γ-chain K88H, K111H, K382H, K399H (SEQ ID 80)
α-chain degradation during CHO cell protein expression (ExpiCHO-S cells): not detectable | thrombin-induced fibrin polymerization compared with control (pFbg) (thrombin; factor XIIIa 50 mU/ml, CaCl2 10 mM, 37° C., 0-3600 sec): slightly reduced | absorption in fibrin polymerization compared with control (pFbg) (thrombin; turbidity 350 nm): comparable | lag time of fibrin polymerization compared with control (pFbg) (thrombin; turbidity 350 nm): similar | formation of functional fibrin gels (FXIIIa; conclusion from polymerization and cross-linking experiments): forms functional fibrin gels | incubation time after which cross-linked γ-γ-dimer bands were visible (FXIIIa; fibrinogen 0.1 mg/mL, FXIIIa 0.5 U/mL, thrombin 0.05 U/mL, CaCl2 10 mM, 37° C.): 5 min
